The results in this text go back to the supplement of paper PMC10598134.

± gives the standard deviation.

This series can be described thus: collision cross section of modified peptide (TIMS, N2, iRT-aligned); higher = larger / more extended gas-phase ion. In short, it runs like this: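 Synthetic peptide pools (~100 fmol/µL in 2% acetonitrile/0.1% formic acid, iRT standard spiked 1:40) were separated on a 120-min nanoflow C18 gradient at 60 °C. They were analysed on a timsTOF Pro/HT (dda-PASEF, nitrogen, ~2.4 mbar) and identified with MaxQuant. 1/K0 was calibrated with three reference ions and aligned run-wise to the median iRT peptide deviation. Collision cross section came from the Mason-Schamp equation, averaging 1–3 technical replicates of the most abundant feature per charge state.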

Setting [1] is: charge state: 2, modification: Malonyl.
[2] abbreviates: charge state: 2, modification: Crotonyl.
Where [3] appears, read: charge state: 2, modification: Acetyl (K).
Setting [4] is: charge state: 3, modification: Acetyl (K).
Setting [5] is: charge state: 2, modification: Nitro (Y).
Setting [6] is: charge state: 2, modification: Trimethyl (K).
[7] abbreviates: charge state: 3, modification: Trimethyl (K).
Setting [8] is: charge state: 3, modification: Dimethyl (K).
The mark [9] stands for this setting: charge state: 2, modification: HexNAc (ST).
Where [10] appears, read: charge state: 2, modification: hydroxyisobutyryl.
Where [11] appears, read: charge state: 3, modification: hydroxyisobutyryl.
The mark [12] stands for this setting: charge state: 3, modification: Crotonyl.
Where [13] appears, read: charge state: 2, modification: Methyl (K).
[14] abbreviates: charge state: 3, modification: Methyl (K).
The mark [15] stands for this setting: charge state: 2, modification: GlyGly (K).
Where [16] appears, read: charge state: 3, modification: GlyGly (K).
[17] abbreviates: charge state: 2, modification: Butyryl.
Setting [18] is: charge state: 2, modification: Formyl.
Setting [19] is: charge state: 3, modification: Formyl.
The mark [20] stands for this setting: charge state: 2, modification: Biotin.
Setting [21] is: charge state: 3, modification: Citrullination (R).

“GERGFPGYPGPK [_GERGFPGYP(Hydroxyproline)GPK_]”: for the setting “charge state: 3, modification: Hydroxyproline”, the collision cross section was found to be 456.01 ± 1.2 Å².
As to DFDTALKHYDK [_DFDTALK(Malonyl)HYDK_], under setting [1], the collision cross section stood at 405.79 ± 0.59 Å².
In the case of “IVSGKDYNVTANSK [_IVSGK(Crotonyl)DYNVTANSK_]”, under setting [2], the collision cross section is 415.26 ± 1.1 Å².
As for “PANEKATDDYHYEK [_PANEK(Biotin)ATDDYHYEK_]”, the collision cross section (charge state: 3, modification: Biotin) was found to be 529.25 ± 3.6 Å².
“LEEVTGKLQVAR [_LEEVTGK(Acetyl (K))LQVAR_]”: the collision cross section was 391.97 ± 0.61 Å² under setting [3] and 467.89 Å² under setting [4].
As to GDYDLNAVR [_GDY(Nitro (Y))DLNAVR_], under setting [5], the collision cross section was found to be 344.3 ± 0.72 Å².
Regarding “ISSNFSSIIAEKLR [_ISSNFSSIIAEK(Crotonyl)LR_]”, the collision cross section under setting [2] is 435.72 Å².
With “VGVEVPDVNIEGPEGKLK [_VGVEVPDVNIEGPEGK(Trimethyl (K))LK_]”, the collision cross section reads like this: under setting [6], 479.14 ± 17 Å²; under setting [7], 530.81 ± 6.1 Å².
With “STGLELETPSLVPVKK [_STGLELETPSLVPVK(Dimethyl (K))K_]”, the collision cross section runs as follows: (charge state: 2, modification: Dimethyl (K)) 456.56 ± 2.3 Å²; under setting [8], 515.08 ± 1.7 Å².
Turning to “LTEKELAEAASK [_LTEK(Trimethyl (K))ELAEAASK_]”, the collision cross section was 406.14 ± 0.61 Å² under setting [6] and 451.11 ± 2.4 Å² under setting [7].
In turn, “FSPPSSSLQPGK [_FSPPSSS(HexNAc (ST))LQPGK_]” displayed a collision cross section under setting [9] of 396.47 ± 1.2 Å².
As to “VNIGQGSHPQKVK [_VNIGQGSHPQK(hydroxyisobutyryl)VK_]”, the collision cross section by setting is: under setting [10], 435.4 ± 0.33 Å²; under setting [11], 488.96 ± 2.8 Å².
Consider “VTLEVGKVIQQGR [_VTLEVGK(Crotonyl)VIQQGR_]”, for which the collision cross section came to 412.55 ± 0.81 Å² under setting [2] and 473.48 ± 1.6 Å² under setting [12].
Under setting [9], VLSIGDGIAR [_VLS(HexNAc (ST))IGDGIAR_] registered a collision cross section of 372.66 ± 0.12 Å².
“SKHLQEQLNELK [_SK(Methyl (K))HLQEQLNELK_]” had a collision cross section under setting [13] of 411.32 ± 1.9 Å² and a collision cross section under setting [14] of 492.52 ± 1.8 Å².
DYILEGEPGK [_DY(Nitro (Y))ILEGEPGK_] displayed a collision cross section under setting [5] of 355.27 ± 0.17 Å².
The sequence DHLSDKESK [_DHLSDK(Crotonyl)ESK_] yielded a collision cross section under setting [2] of 361.16 ± 11 Å².
“ALASIDSKLNQAK [_ALASIDSK(Methyl (K))LNQAK_]”: the collision cross section under setting [13] was 411.6 ± 0.9 Å² and the collision cross section under setting [14] was 462.35 ± 4.6 Å².
“DESFLGKLGGTLAR [_DESFLGK(Acetyl (K))LGGTLAR_]”: the collision cross section by setting is: under setting [3], 410.82 ± 1.1 Å²; under setting [4], 491.27 Å².
For VETTVTSLKTK [_VETTVTSLK(Malonyl)TK_], the collision cross section under setting [1] was determined as 384.89 ± 0.011 Å².
On to “LLIVSTTPYSEKDTK [_LLIVSTTPYSEK(Crotonyl)DTK_]”, for which the collision cross section reads like this: under setting [2], 458.47 ± 1.4 Å²; under setting [12], 486.79 ± 2.7 Å².
In the case of “VNIGQGSHPQKVK [_VNIGQGSHPQK(Malonyl)VK_]”, the collision cross section under setting [1] came to 424.04 ± 0.57 Å².
Sequence KVQFAPEK [_KVQFAP(Hydroxyproline)EK_] came in with a collision cross section (charge state: 2, modification: Hydroxyproline) of 331.99 ± 1.4 Å².
Regarding “IISSIEQKEENK [_IISSIEQK(GlyGly (K))EENK_]”, the collision cross section was determined as 403.29 ± 1.5 Å² under setting [15] and 482.93 Å² under setting [16].
For “GSLGAQKLANTCFNEIEK [_GSLGAQK(GlyGly (K))LANTCFNEIEK_]”, the collision cross section is recorded as 500.39 ± 1.8 Å² under setting [15] and 528.63 ± 18 Å² under setting [16].
Take LLEQKTQESQK [_LLEQK(Butyryl)TQESQK_]: the collision cross section under setting [17] was found to be 398.26 ± 0.79 Å².
The sequence ASCLYGQLPK [_ASCLY(Nitro (Y))GQLPK_] yielded a collision cross section under setting [5] of 365.43 ± 2.1 Å².
Under setting [8], “IVEKYGYTHLSAGELLR [_IVEK(Dimethyl (K))YGYTHLSAGELLR_]” gave a collision cross section of 550.8 Å².
As to “DAIHFYNKSLAEHR [_DAIHFYNK(Trimethyl (K))SLAEHR_]”, the collision cross section under setting [7] turned out to be 498.17 ± 1.1 Å².
For ISALQGKLSK [_ISALQGK(GlyGly (K))LSK_], the collision cross section by setting is: under setting [15], 369.61 ± 1 Å²; under setting [16], 430.51 ± 2 Å².
Regarding “SSGPGGQNVNKVNSK [_SSGPGGQNVNK(Formyl)VNSK_]”, the collision cross section by setting is: under setting [18], 398.34 ± 0.83 Å²; under setting [19], 435.41 ± 4.1 Å².
As to “GEVGAGAGPGAQAGPSAKR [_GEVGAGAGPGAQAGPSAK(Crotonyl)R_]”, the collision cross section runs as follows: under setting [2], 426.44 ± 0.55 Å²; under setting [12], 497.45 ± 1.2 Å².
Under setting [20], SLKLNTAEDAK [_SLK(Biotin)LNTAEDAK_] had a collision cross section of 397.96 Å².
As to “TQDQISNIKYHEEFEK [_TQDQISNIK(Formyl)YHEEFEK_]”, the collision cross section under setting [19] worked out at 551.65 ± 1.7 Å².
On to “LQAAYAGDKADDIQK [_LQAAYAGDK(Methyl (K))ADDIQK_]”, for which the collision cross section runs as follows: under setting [13], 430.05 ± 1.4 Å²; under setting [14], 477.97 ± 2.6 Å².
In turn, “YEEIVKEVSTYIK [_YEEIVK(Malonyl)EVSTYIK_]” registered a collision cross section under setting [1] of 438.59 ± 1.6 Å².
Consider “PSVGSQSNQAGQGKR [_PSVGSQSNQAGQGK(Acetyl (K))R_]”, for which the collision cross section is 409.31 ± 3.1 Å² under setting [3] and 465.77 ± 2.3 Å² under setting [4].
Under setting [2], TLQKQSVVYGGK [_TLQK(Crotonyl)QSVVYGGK_] showed a collision cross section of 396.64 ± 0.8 Å².
Turning to “RLPNVHGR [_R(Citrullination (R))LPNVHGR_]”, the collision cross section is 340.93 ± 1.6 Å² (charge state: 2, modification: Citrullination (R)) and 417.11 ± 3.5 Å² under setting [21].
Take “LQEKVESAQSEQK [_LQEK(Malonyl)VESAQSEQK_]”: the collision cross section reads like this: under setting [1], 413.7 ± 1.6 Å²; (charge state: 3, modification: Malonyl) 504.23 ± 2.2 Å².
In the case of “AGQKLIDVNHYAK [_AGQK(Butyryl)LIDVNHYAK_]”, the collision cross section is 434.25 ± 1.1 Å² under setting [17] and 485.15 ± 2.9 Å² (charge state: 3, modification: Butyryl).
“GTVPDDAVEALADSLGKK [_GTVPDDAVEALADSLGK(Gluratylation)K_]”: the collision cross section came out at 452.53 ± 1.2 Å² (charge state: 2, modification: Glutarylation) and 538.57 ± 1.8 Å² (charge state: 3, modification: Glutarylation).
Under setting [20], ITGKNQVTATK [_ITGK(Biotin)NQVTATK_] returned a collision cross section of 389.13 ± 1.7 Å².
Consider GAEKTEVAEPR [_GAEK(Methyl (K))TEVAEPR_], for which the collision cross section reads like this: under setting [13], 369.74 ± 0.22 Å²; under setting [14], 441.71 ± 4.3 Å².
Consider “IVFSGNLFQHQEDSKK [_IVFSGNLFQHQEDSK(hydroxyisobutyryl)K_]”, for which the collision cross section was 503.66 ± 0.71 Å² under setting [10] and 534.25 ± 1.1 Å² under setting [11].
With “TSAVSSQANSQPPVQVSVK [_T(HexNAc (ST))SAVSSQANSQPPVQVSVK_]”, the collision cross section (charge state: 3, modification: HexNAc (ST)) was 513.92 Å².
For LEQVEKELLR [_LEQVEK(Formyl)ELLR_], the collision cross section under setting [18] stood at 382.29 ± 0.41 Å².
With “STGLELETPSLVPVKK [_STGLELETPSLVPVK(hydroxyisobutyryl)K_]”, the collision cross section is, setting by setting: under setting [10], 440.07 ± 0.82 Å²; under setting [11], 511.71 ± 25 Å².
The sequence “DSRGGGGNFGPGPGSNFR [_DSR(Citrullination (R))GGGGNFGPGPGSNFR_]” yielded a collision cross section under setting [21] of 470.03 ± 5.1 Å².
